Assay results taken from patent publication US20240189458A1, “METHODS FOR IN VIVO DELIVERY OF MICROBES TO HUMAN MICROENVIRONMENTS” (priority 2021, published 2024).
Ends that are not written are not given here.

Tests used:
Format in all cases: cell-based
S. Typhimurium PhoPQ [1] = molecular target: T1, S. Typhimurium PhoPQ (Salmonella typhimurium, UniProt P0DM80); experiment: SLAY-TCS sort-seq screen of KB1 human AMP library; conditions: for sort-seq fold activation of PhoPQ relative to no-peptide control: KB1 library, 500 μM IPTG
T1 construct: expressed in transfected cells; host or cells: E. coli BW30007 (lacks E. coli phoPQ) with the cassette integrated in the genome = strain KB1
From the text: PhoQ senses diverse human AMPs: To characterize the response of PhoQ to most human AMPs, 133 human AMPs in the Antimicrobial Peptide Database (APD3) were first identified). From this set, 16 (12%) were excluded exceeding 104 amino acids in length due to size restrictions of commercial oligonucleotide synthesis. The remaining set of 117 AMPs vary in charge, length, hydrophobicity, and secondary structure, and comprise 11 clusters of high sequence similarity. These clusters include families of mature AMPs processed from a single precursor peptide (e.g. products of cathelicidin, human defensin 5, and β-amyloid) and peptides with high sequence similarity that are produced from distinct genes (e.g. CXCL1, CXCL2, and CXCL3).
This plasmid library was transformed into KB1. Using Illumina NGS, it was validated that sequences encoding all 117 human AMPs, along with no-peptide controls, are present in the KB1 human AMP library. Variants of human AMPs were also identified that likely resulted from errors in oligo synthesis or plasmid assembly. As expected, these variants generally had lower representation in the library than the human AMPs.
Next, sort-seq was utilized to characterize the effect of each peptide on PhoPQ activity. First, the KB1 human AMP library was grown in the presence of 500 μM IPTG, which induces sufficient expression of positive control AMPs to strongly activate PhoPQ (FIG. 25D). Then, FACS was used to sort these bacteria into eight logarithmically-spaced mNG fluorescence bins (FIG. 26B). The bins were designed to span the fluorescence distributions of negative (no peptide) and positive (C18G) PhoQ activity control strains measured on the same day. […] Next, Illumina NGS was used to sequence the peptide-encoding DNA regions from bacteria in each bin and estimated the mean mNG fluorescence level of each strain using the relative abundances of peptide-encoding sequences across fluorescence bins. These estimated fluorescence values were divided by the estimated mean fluorescence of the no-peptide control to calculate the fold activation of PhoPQ in response to each peptide in the library.

KB1 PhoQ H277A = molecular target: T2, KB1 PhoQ H277A (Salmonella typhimurium, UniProt P0DM80, H277A); experiment: Negative control strains (S. Typhimurium lacking phoQ; KB1 PhoQ H277A)
T2 construct: expressed in transfected cells; host or cells: E. coli KB1 derivative (BW30007 background)
T2 sequence (P0DM80 1-487 H277A): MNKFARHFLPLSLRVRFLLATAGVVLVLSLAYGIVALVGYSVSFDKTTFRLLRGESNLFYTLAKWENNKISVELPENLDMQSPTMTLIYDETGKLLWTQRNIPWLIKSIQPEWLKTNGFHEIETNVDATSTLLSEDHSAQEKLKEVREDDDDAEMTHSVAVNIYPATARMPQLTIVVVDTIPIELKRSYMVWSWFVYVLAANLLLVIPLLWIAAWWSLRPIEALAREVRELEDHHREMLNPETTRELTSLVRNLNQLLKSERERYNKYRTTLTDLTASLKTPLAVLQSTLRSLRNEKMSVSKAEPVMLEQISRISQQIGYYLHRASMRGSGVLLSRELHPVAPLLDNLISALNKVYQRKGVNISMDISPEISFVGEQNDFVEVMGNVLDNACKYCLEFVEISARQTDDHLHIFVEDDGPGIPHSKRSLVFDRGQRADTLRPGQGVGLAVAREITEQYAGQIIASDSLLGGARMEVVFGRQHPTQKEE
Method: This plasmid was transformed into both S. Typhimurium and KB1 to measure PhoPQ activation by the positive control AMP LL-37. […] LL-37 response was also measured in two negative control strains: an S. Typhimurium strain lacking phoQ and a KB1 derivative in which the catalytic histidine of PhoQ was mutated to an alanine (KB1 PhoQ H277A).

S. Typhimurium PhoPQ [2] = molecular target: T1, S. Typhimurium PhoPQ; experiment: SLAY-TCS: surface-displayed peptides in KB1, single strains, flow cytometry; conditions: KB1, IPTG-induced display
From the text: In SLAY, peptides of interest are expressed at the C-terminus of a fusion protein consisting of the Lpp signal peptide, an OmpA transmembrane domain, and a flexible tether. […] In addition to PvirK-mNG, each of these plasmids encodes a SLAY fusion protein under the control of an isopropyl-β-D-thiogalactoside (IPTG)-inducible promoter (Ptac) (FIG. 25). Ptac is tightly repressed, to avoid potential toxicity arising from leaky AMP expression in the absence of inducer. […] Finally, a no-peptide control plasmid encoding a stop codon was constructed instead of a peptide following the OmpA transmembrane domain.

T1 sequence (P0DM80 whole entry): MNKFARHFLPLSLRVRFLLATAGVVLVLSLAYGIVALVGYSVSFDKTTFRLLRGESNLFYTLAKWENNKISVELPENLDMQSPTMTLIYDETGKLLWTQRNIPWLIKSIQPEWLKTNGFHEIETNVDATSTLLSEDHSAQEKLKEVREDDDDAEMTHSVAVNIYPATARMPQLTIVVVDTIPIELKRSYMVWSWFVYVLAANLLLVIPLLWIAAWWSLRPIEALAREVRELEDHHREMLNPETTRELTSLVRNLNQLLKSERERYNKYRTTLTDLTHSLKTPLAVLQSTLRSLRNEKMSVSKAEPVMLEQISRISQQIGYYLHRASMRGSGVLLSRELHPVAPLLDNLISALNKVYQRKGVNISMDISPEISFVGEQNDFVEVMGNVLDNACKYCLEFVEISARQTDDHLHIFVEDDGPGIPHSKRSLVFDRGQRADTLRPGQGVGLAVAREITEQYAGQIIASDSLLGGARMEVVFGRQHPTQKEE

Substance | sort-seq fold activation of PhoPQ relative to no-peptide control (S. Typhimurium PhoPQ [1]) | human AMPs sensed by PhoPQ (S. Typhimurium PhoPQ [1]) | PhoPQ activation by surface-displayed peptide (S. Typhimurium PhoPQ [2]) | further results
LL-37 | 5.2 fold | – | – | LL-37 response in negative control strains (KB1 PhoQ H277A; S. Typhimurium lacking phoQ and KB1 PhoQ H277A): Neither negative control strain responds
hBD3: human β-defensin 3 (GIINTLQKYYCRVRGGRCAVLSCLPKEEQIGKCSTRGRKCCRRKK; ends and bridges not checked; cysteine pairing not given here; UniProt P81534 23-67, looked up) | – | senses | – | –
HNP-1: human defensin, negative control peptide | does not activate mNG expression | – | do not activate PhoPQ | –
NPY: neuropeptide Y | – | senses | – | –
protegrin-1: positive control AMP containing disulfide bonds (RGGRLCYCRRRFCVCVGR; disulfide (positions not given here); ends not checked; also: disulfide bonds, pairing not given here; UniProt P32194 131-148, looked up) | – | – | activates PhoPQ | PhoPQ activation by surface-displayed AMPs in PhoQ H277A strain (KB1 PhoQ H277A; KB1 PhoQ H277A): slight increase in mNG fluorescence
CCL20 | – | senses | – | –
